Measured values: US20220233690A1

Molecular target: CD40 (human) (UniProt P25942)
Test: cell-based or functional assay

UniProt P25942, sequence (P25942 21-277): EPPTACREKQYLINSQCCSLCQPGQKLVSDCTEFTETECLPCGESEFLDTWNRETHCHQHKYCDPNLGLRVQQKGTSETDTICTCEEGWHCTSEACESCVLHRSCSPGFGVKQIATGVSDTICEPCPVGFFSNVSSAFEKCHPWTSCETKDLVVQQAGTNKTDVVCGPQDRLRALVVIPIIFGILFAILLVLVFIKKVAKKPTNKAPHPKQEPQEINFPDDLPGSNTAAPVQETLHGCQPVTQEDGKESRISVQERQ

T cell activation (percentage of live CD2+CD16-CD8+ cells expressing CD25) (% below CD20×CD3 (REGN1979) alone): 35
Substance: Anti-CD40 antibody (IgG1 mutant, REGN3794)
